Measurements published in US20190202925A1 (OPI VI IP HOLDCO, published 2019).

T1: human TNFR2 on cells (human, UniProt P20333 23-461)
T1 construct: whole, on cells; also called TNFR2 on Jurkat clone H6; human TNFR2 on CD4+ and CD8+ T cells
T1 sequence (looked up): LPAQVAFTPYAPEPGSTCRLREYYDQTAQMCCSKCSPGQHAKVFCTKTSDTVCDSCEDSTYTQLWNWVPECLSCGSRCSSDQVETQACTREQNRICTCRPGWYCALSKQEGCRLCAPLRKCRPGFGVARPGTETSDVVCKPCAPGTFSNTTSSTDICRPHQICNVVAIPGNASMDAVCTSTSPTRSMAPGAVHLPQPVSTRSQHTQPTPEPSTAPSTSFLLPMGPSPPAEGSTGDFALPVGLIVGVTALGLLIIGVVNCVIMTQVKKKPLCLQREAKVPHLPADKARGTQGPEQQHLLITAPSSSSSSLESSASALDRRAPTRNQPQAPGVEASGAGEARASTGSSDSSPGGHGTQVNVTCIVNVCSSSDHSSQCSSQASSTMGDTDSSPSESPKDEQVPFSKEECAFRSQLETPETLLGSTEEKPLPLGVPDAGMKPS

T2: soluble cynomolgus TNFR2 (cynomolgus, UniProt A0A2K5VET2 132-366)
T2 sequence: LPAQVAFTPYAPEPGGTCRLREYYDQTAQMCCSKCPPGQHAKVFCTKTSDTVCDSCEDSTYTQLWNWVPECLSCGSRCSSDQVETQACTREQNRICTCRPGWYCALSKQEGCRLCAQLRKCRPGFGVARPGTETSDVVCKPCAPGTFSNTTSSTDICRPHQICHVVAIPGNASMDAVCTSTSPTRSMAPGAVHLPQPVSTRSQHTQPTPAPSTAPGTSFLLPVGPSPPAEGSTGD

T3: soluble human TNFR2 (human, UniProt P20333 23-257)
T3 construct: also called soluble TNFR2
T3 sequence (looked up): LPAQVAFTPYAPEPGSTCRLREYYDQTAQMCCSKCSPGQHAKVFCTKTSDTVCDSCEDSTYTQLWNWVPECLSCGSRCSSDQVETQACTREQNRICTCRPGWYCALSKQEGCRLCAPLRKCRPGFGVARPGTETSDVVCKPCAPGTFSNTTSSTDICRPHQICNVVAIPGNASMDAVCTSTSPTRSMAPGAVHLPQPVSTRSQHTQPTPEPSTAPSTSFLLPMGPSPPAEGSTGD

T4: monomeric human TNFR2 extracellular domain (human, UniProt P20333 23-257)
T4 construct: extracellular domain; Analyte in the Octet experiments; also called human TNFR2 ECD
T4 sequence (looked up): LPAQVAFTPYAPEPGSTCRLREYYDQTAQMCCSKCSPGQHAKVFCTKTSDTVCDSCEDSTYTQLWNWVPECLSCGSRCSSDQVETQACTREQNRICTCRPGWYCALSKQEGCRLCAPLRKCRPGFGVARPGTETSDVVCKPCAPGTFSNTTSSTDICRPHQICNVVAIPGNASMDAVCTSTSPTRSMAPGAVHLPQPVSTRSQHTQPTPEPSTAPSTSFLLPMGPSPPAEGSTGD

T5: monomeric cynomolgus TNFR2 extracellular domain (cynomolgus monkey, UniProt A0A2K5VET2 132-366)
T5 construct: extracellular domain; Analyte in the Octet experiments; also called cynomolgus TNFR2 ECD; Cyno TNFR2
T5 sequence: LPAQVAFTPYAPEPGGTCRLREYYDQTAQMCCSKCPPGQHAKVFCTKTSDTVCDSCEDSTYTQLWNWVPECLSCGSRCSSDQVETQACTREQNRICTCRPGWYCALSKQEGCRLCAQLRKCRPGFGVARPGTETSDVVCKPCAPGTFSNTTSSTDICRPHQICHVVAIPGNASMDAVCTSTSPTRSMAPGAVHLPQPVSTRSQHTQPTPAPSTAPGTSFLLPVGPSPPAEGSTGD


Experiments:
[1] = biological target: T1, human TNFR2 on cells; assay: flow cytometry on human PBMC, antibody at 10 ug/mL, anti-human Fc-PE secondary
Method: The following day 0.3×10⁶ PBMC were counted and washed with PBS (Lonza). PBMCs were resuspended in Fixable Viability Stain 575V (BD) diluted 1:1,000 in PBS and incubated for 10 minutes. PBMCs were then washed twice in PBS to remove residual viability stain. PBMCs were then resuspended in Horizon Brilliant Stain Buffer (BD) with 10 uL per test of human Fc receptor binding inhibitor (eBioscience) and incubated on ice for 20 minutes to block Fc receptors. […] PBMCs were incubated 20 minutes on ice and then washed three times with 2% FBS PBS. To visualize TNFR chimeric antibody binding, PBMCs were resuspended in goat anti-human Fc-PE F(ab′)₂ secondary reagent (Jackson ImmunoResearch) diluted 1:200 in 2% FBS PBS and incubated on ice for 20 minutes. Cells were then washed three times in 2% FBS PBS and resuspended in 200 uL 2% FBS PBS for flow cytometry analysis using a BD FACS Celesta instrument and FACS Diva software. T cells were analyzed for chimeric TNFR2 binding by gating on viable cells defined as lymphocytes using forward and side scatter and as T cells by anti-CD3 staining. CD4⁺ and CD8⁺ subsets were identified by commercially available specific antibody conjugates.

[2] = biological target: T2, soluble cynomolgus TNFR2; assay: competition ELISA: plate-bound soluble cynomolgus TNFR2, competitor biotinylated TNFα, streptavidin-HRP, A450
Method: (§1) Soluble human TNFR2 (Sino Biological, 10417-H08H) or cynomolgus TNFR2 (Sino Biological, 90102-C08H) was coated on Nunc-Immuno™ plates at 0.1 μg/ml, 0.5 ug/ml, 1 μg/ml, and 5 μg/ml. […] Plates were developed using TMB and stopped with 3 M HCl.

[3] = biological target: T3, soluble human TNFR2; assay: competition ELISA: plate-bound soluble human TNFR2, competitor biotinylated TNFα, streptavidin-HRP, A450
Method: as §1

[4] = biological target: T2, soluble cynomolgus TNFR2; assay: competition ELISA: plate-bound soluble cynomolgus TNFR2, competitor biotinylated TNFα; IC50 relative to unlabelled TNFα = 1.00
Method: as §1
(§2) IC₅₀ values are reported in nM.

[5] = biological target: T3, soluble human TNFR2; assay: competition ELISA, plate-bound soluble human TNFR2, biotinylated TNFα as competitor
Method: as §1, §2

[6] = biological target: T3, soluble human TNFR2; assay: competition ELISA: plate-bound soluble human TNFR2, competitor biotinylated TNFα; IC50 relative to unlabelled TNFα = 1.00
Method: as §1, §2

[7] = biological target: T2, soluble cynomolgus TNFR2; assay: competition ELISA, plate-bound soluble cynomolgus TNFR2, biotinylated TNFα as competitor
Method: as §1, §2

[8] = biological target: T6, cynomolgus TNFR2 on cells (cynomolgus); assay: flow cytometry on cynomolgus PBMC, antibody at 10 ug/mL, anti-human Fc-PE secondary
T6 construct: whole, on cells; also called cynomolgus TNFR2 on CD4+ and CD8+ T cells
Method: Cynomolgus peripheral blood mononuclear cells (PBMCs) from two independent donors were isolated by diluting whole blood (SNBL USA) 1:1 in PBS (Lonza), layering over Ficoll-Paque Plus (GE Healthcare), and centrifuging for 35 minutes at 400×g. The PBMC fraction was removed, washed 3 times in 2% FBS PBS and counted. 0.3×10⁶ PBMC were resuspended in Fixable Viability Stain 575V (BD) diluted 1:1000 in PBS and incubated for 10 minutes. PBMC were then washed twice in PBS to remove residual viability stain, resuspended in Horizon Brilliant Stain Buffer (BD) with 10 uL per test of human Fc receptor binding inhibitor (eBioscience), and incubated on ice for 20 minutes to block Fc receptors. […] PBMC were incubated 20 minutes on ice and then washed three times with 2% FBS PBS. To visualize TNFR2 chimeric antibody binding, PBMC were resuspended in goat anti-human Fc-PE F(ab′)₂ secondary reagent (Jackson ImmunoResearch) diluted 1:200 in 2% FBS PBS and incubated on ice for 20 minutes. Cells were then washed three times in 2% FBS PBS and resuspended in 200 uL 2% FBS PBS for flow cytometry analysis using a BD FACS Celesta instrument and FACS Diva software. T cells were analyzed for chimeric TNFR2 binding by gating on viable cells defined as lymphocytes using forward and side scatter and as T cells by anti-CD3 staining. CD4⁺ and CD8⁺ subsets were identified using commercial specific antibody conjugates.

[9] = biological target: T4, monomeric human TNFR2 extracellular …; assay: BLI (Octet Red 96), antibody captured on Fc biosensor, monomeric TNFR2 ECD in solution, 1:1 model
Method: (§3) Analysis of binding to the human and cynomolgus TNFR2 ECD was performed using an Octet Red 96 Instrument™ (ForteBio). […] The experiments were performed using five steps: (1) baseline acquisition (60 s); (2) antibody loading on to anti-human or anti-mouse Fc biosensors (120 s); (3) second baseline acquisition (60 s); (4) association of interacting monomeric human or cynomolgus TNFR2 ECD protein for kₒₙ measurement (120 s); and (5) dissociation of interacting monomeric human or cynomolgus TNFR2 ECD for koff measurement (240-3600 s).
(§4) The interacting monomeric human or cynomolgus ECD was used at 5-6 concentrations of a 3-fold concentration series. The data were analyzed using Octet Data Analysis Software 9.0™ (ForteBio) and fit to the 1:1 binding model. The equilibrium dissociation constants (Kd) were calculated by the ratio of […].

[10] = biological target: T5, monomeric cynomolgus TNFR2 …; assay: as above
Method: as §3, §4

[11] = biological target: T3, soluble human TNFR2; assay: competition ELISA: plate-bound soluble TNFR2, antibody titrated against constant biotinylated TNFα, streptavidin-HRP, A450
From the text: (§5) Soluble human TNFR2 was coated on Nunc-Immuno™ plates. […] IC₅₀ values are reported in nM.
as §2

[12] = biological target: T3, soluble human TNFR2; assay: competition ELISA (FIG. 2), plate-bound soluble human TNFR2, constant biotinylated TNFα as competitor
From the text: as §5

[13] = biological target: T4, monomeric human TNFR2 extracellular …; assay: BLI (Octet Red 96), Human TNFR2 Kd (1-1)

% CD4^+ ab^+ Donor 1 [1] [%] | % CD4^+ ab^+ Donor 2 [1] [%] | % CD8^+ ab^+ Donor 1 [1] [%] | % CD8^+ ab^+ Donor 2 [1] [%] | IC50 [2] [nM] | IC50 [3] [nM] | Relative IC50 [4] [nM] | Average Relative IC50 [5] [nM] | Relative IC50 [6] [nM] | Average Relative IC50 [7] | % CD4^+ ab^+ Donor 1 [8] [%] | % CD4^+ ab^+ Donor 2 [8] [%] | % CD8^+ ab^+ Donor 1 [8] [%] | % CD8^+ ab^+ Donor 2 [8] [%] | Kd [9] [nM] | Kd [10] [nM] | IC50 [11] [nM] | IC50 [12] [nM] | Kd [13] [nM] | Binder
29.3 | 18.4 | 9.1 | 11.4 | 15.1 | 12.9 | 1.57 | 2.93 | 2.33 | 1.56 | 8 | 5.5 | 9.2 | 11 | 2.8 | 7.9 |  |  |  | chimeric SBT-004b (antibody, human IgG1, V domains shown, Same heavy chain as chSBT-004 (human IgG1 Fc domain); also called chSBT-004b) VH: EVQLQQSGPEVGRPGSSVKISCKASGYTFTDYIMHWVKQSPGQGLEWIGWVDPEYGSTDYAEKFKKKATLTADTSSNTAYIQLSSLTSEDTATYFCARDDGSYSPFDYWGQGVMVTVSS VL: NIVMTQSPKSMSMSVGERVTLTCKASENVVTYVSWYQQKPEQSPKLLIYGASNRYTGVPDRFTGSGSATDFTLTISSVQAEDLADYHCGQGYSYPYTFGGGTKLEIK
 |  |  |  |  |  |  |  |  |  |  |  |  |  | 1.2 |  | 8.5 | 10.5 | 1.2 | SBT-003 (antibody, V domains shown, Parental mouse antibody; also called mouse SBT-003) VH: QIQLVQSGPELKKPGETVKISCKASGYTFTDYSMHWVKQAPGKGLKWMGWINTETGEPTYADDFKGRFAFSSETSTSTAYLQINNLKNDDTTTYFCATYYGSSYVPDYWGQGTSLTVSS VL: DIVMTQSHKFMSTSVGDRVSITCKASQNVGTAVAWYQHKPGQSPKLLIYWTSSRHTGVPDRFTGSGSGTEFTLTISNVQSEDLADYFCHQYSDYPYTFGGGTKLEIK
